Test results published in US20150259426A1 (Novartis, published 2015).

Key:
[1] = molecular target: T1, cell-bound cynomolgus DR5 (CHO-K1 cells transfected with the full length cynoDR5 gene) (cynomolgus); assay: FACS, periplasmic extract on CHO-K1 cells expressing cynomolgus DR5, anti-myc detection
T1 construct: whole, on cells

[2] = molecular target: T2, cynomolgus DR5-Fc fusion protein (cyno DR5 amino acids 56 to 213 fused with human IgG1 Fc) (cynomolgus; human); assay: SPR (Biacore), CM5 chip coated with cynomolgus DR5-Fc, 1 to 100 nM NB construct
[3] = molecular target: T3, cell-bound human DR5 (Colo205 and other human cell lines) (human, UniProt O14763 56-440); assay: FACS, periplasmic extract on Colo205 cells, anti-myc detection
T3 construct: endogenous DR5 of the cell lines

[4] = molecular target: T2, cynomolgus DR5-Fc fusion protein (cyno …); assay: ELISA, periplasmic extract, plate coated with cynomolgus DR5-Fc, anti-myc detection
[5] = molecular target: T1, cell-bound cynomolgus DR5 (CHO-K1 cells …); assay: FACS saturation binding, apparent KD, cell-bound cynomolgus DR5
[6] = molecular target: cynomolgus DR5 (construct used not stated) (cynomolgus); assay: SPR kinetics (Biacore), cynomolgus DR5

Binder | mean count fluorescence [1] | Kd [2] | mean count fluorescence [3] | ABS405 nm [4] | Kd [5] | Kd [6]
11D1 (monomeric anti-DR5 NB construct) (VHH, llama VHH; periplasmic extract or purified monovalent material from E. coli; not shown: C-terminal c-myc tag and (His)6 tag coded by the vector) VHH: EVQLVESGGGLVQPGGSLRLSCAASGSIDSINNMGWYRQAPGKQRELVAEITPRGRTNYADSEKSRFTISRDNAKRTVNLQMNSLKPEDTAVYYCNAEVRERGTSWYRPDYWGQGTQVTVSS | 417 | 220 nM | 919 | 0.213 ABS405 nm | – | –
4E6 (monomeric anti-DR5 NB construct) (VHH, llama VHH; periplasmic extract or purified monovalent material from E. coli; also called 4E6 parent; wild type 4E6; not shown: C-terminal c-myc tag and (His)6 tag coded by the vector) VHH: EVQLVESGGGSVQAGDSLRLSCAASGRTFGSIRVGWFRQTPGKEREFVAAINRNDGTTYYADSVKGRFTISRDNAKNTVYMQMASLKPEDTAVYYCAAGLQYNRSADRVPVGAVYWGQGTQVTVSS | 2870 | 16 nM | 972 | 0.313 ABS405 nm | 7.3 nM | 5.5 nM
4E6-Hu (monovalent humanized, N-glycosylation knock-out variant of 4E6) (VHH, produced in E. coli and purified) VHH: EVQLLESGGGLVQPGGSLRLSCAASGRTFGSIRVGWFRQAPGKGREFVSAINRNDGTTYYADSVKGRFTISRDNSKNTVYLQMNSLRPEDTAVYYCAAGLQYNRAADRVPVGAVYWGQGTLVTVSS | – | – | – | – | 8.8 nM | 1.6 nM
7A12 (monomeric anti-DR5 NB construct) (VHH, llama VHH; periplasmic extract or purified monovalent material from E. coli; not shown: C-terminal c-myc tag and (His)6 tag coded by the vector) VHH: EVQLVESGGGLVQAGGSLRLSCAASGRTFSNYAMGWFRQAPGKEREFVAALNWSGGSTYYVDSVKGRFTISRDNAKNTVYLQMNSLKPEDTAVYYCAAAGSFSLGGRPYGDDYWGKGTLVTVSS | 24500 | 7.1 nM | 1100 | 0.341 ABS405 nm | – | –
10F1 (monomeric anti-DR5 NB construct) (VHH, llama VHH; periplasmic extract or purified monovalent material from E. coli; not shown: C-terminal c-myc tag and (His)6 tag coded by the vector) VHH: EVQLVESGGGLVQPGGSLRLSCAASGFTFSRYWMYWVRQAPGKGLEWVSAINSGGGDTYYRDSVRGRFTISRDNFKNTLYLQMNSLKSEDTAVYYCAKAEGPPTFSLIRTMTVDPGAQGTQVTVSS | 1630 | 140 nM | 125 | 0.124 ABS405 nm | – | –
